From the Immune Epitope Database (IEDB)
pIC50: −log10 of the molar value.

target: HLA-A*02:01; test: IEDB peptide-MHC binding, cellular MHC/competitive/fluorescence; ≥ and ≤ were set here for values at or beyond the usual limits of such assays; conditions: source organism: Vaccinia virus WR

Sequence | pIC50
QTPIQSDAGM | 4.47
DIYYNGNKML | 4.71
PLITLTNVV | 5.18
IVTLQKVLHV | 4.48
NVEEDLARNL | ≤ 4.15
DTSCDFESVT | ≤ 4.15
MQRISGSNI | 5.01
TVMNNLSELT | 4.92
SQHQHLAIM | 4.87
LVVSTKGDV | 4.59
FVKRLGPGT | 4.40
ATVMNNLSEL | 4.96
DILANRDST | ≤ 4.15
TIQESFIRFT | ≤ 4.15
AIDFGNGADL | 4.33
GIAHLLEHLL | 5.13
PTELKETLL | ≤ 4.15
TVTNLISETL | 4.78
KALSDACKKI | 4.85
EIPTRTLDT | 5.22
FTNKRTRGPL | 4.79
MQRISGSNIV | 4.88
KQQKKCKYCI | 4.25
PMNVDNLIM | 4.76
VATDPDADAI | ≤ 4.15

Sequence | pIC50
RIVVYNPSTM | ≤ 4.15
IQGKNKRKRV | ≤ 4.15
VVKYLSGGGI | ≤ 4.15
VTFNPVSDI | 4.33
VAVAAASST | 4.87
PITIENALV | ≤ 4.15
PAVVYSTCT | 5.26
EVFHCMDILT | 4.83
ALNISSTKT | 4.68
PIIFGESSI | 4.46
TLTGSPSST | 4.54
TTSEVVDML | 5.22
DMPSLSNGL | 4.33
PTNKLQAAVM | 4.53
AAITDAAVA | 4.73
AIIRQRNDEI | 4.76
DLVVLGKVT | 4.27
VTINNLKMM | 5.04
TIKISPGIA | 4.43
IMSLNGKKHT | ≤ 4.15
STFSIGGVI | 4.63
LTFLSGGDL | 4.72
IIERSKKFI | 5.28
RIVVYNPST | 5.22
IIRRSGCRI | ≤ 4.15

Sequence | pIC50
IMKTPGNTDA | 5.03
SVDCNKELM | 4.95
DIIDFLEGAL | 4.63
EIPTRTLDTA | 4.23
YIQETIRSDT | 4.41
IVEHLRDQSI | ≤ 4.15
TLSLSKQDI | 4.93
KVTINNLKM | 5.24
IVVELEPSLA | 5.04
YIRNTLTEKI | 4.42
ELQKFSFKIA | ≤ 4.15
IVRCCAGDDI | 4.97
AIKCEGLDV | 4.87
EVFINDNGIM | ≤ 4.15
STNFLANAST | ≤ 4.15
DVELFIKAL | ≤ 4.15
QLKGFYMISL | 5.05
CISQHQHLAI | 4.96
LVATDPDADA | ≤ 4.15
IIYNANKLI | 4.77
LLKDLFPKQT | ≤ 4.15
ELTASGGKVL | ≤ 4.15
AVNEEWLTA | 4.76
IIRYPVKRI | 5.00
IATYIDALA | 4.91

Sequence | pIC50
PVNNNIVLHT | 4.45
VQLVDAIDNI | 4.88
LTDSLSSQMT | 4.93
YVESKLVDI | 4.60
LTVSFIDET | ≤ 4.15
EQEIESLEAT | 4.37
LTKIDTTHV | 4.85
LQKVLHVTDT | ≤ 4.15
KIDKLRQIVA | 4.49
EQRSTAYEI | 5.05
KVDVELFIKA | 5.10
FLDDSNKRKV | 5.08
QARNIQKIT | 5.17
TIIERSKKFI | 4.35
AVAVAAASST | 4.29
FTNLLSKNT | 4.88
IIRQRNDEI | 4.28
TLQKVLHVT | 5.24
EVSINVDST | ≤ 4.15
RTRGPLGIL | 4.29
QIHLYYNSNI | 4.31
VATDPDADA | ≤ 4.15
ITDAAVAVAA | 5.19
EINNELELV | 5.08
ATDPDADAI | 4.41

Sequence | pIC50
STLPNKSDVL | 4.33
STSITVNEV | 4.90
MQHPREENSI | 4.56
NVILSPPINA | 5.14
ILHRLHEILT | 4.90
PVVFYRSGT | 4.81
SATESDAIRT | ≤ 4.15
DACKKILSA | 4.84
IVRLNQCMSA | 5.13
KITFALKKL | 4.75
EAVKDKNWTV | 4.83
IVVYNPSTM | 4.25
ETDRENAII | 4.17
STILNSIDI | 5.13
IAMKVIQGI | 5.11
DTQQHPIVV | 4.86
TMSTPMTEYI | 5.10
LTASGGKVLI | ≤ 4.15
DIPVNNNIVL | ≤ 4.15
RVETSPRPTA | 4.44
TTLSRHIFM | 5.19
TVSTIDGRIV | ≤ 4.15
VTKVNNYDDT | ≤ 4.15
EIEEHMRQT | 4.41
